Source: patent US7799901B2, “Modulators of the function of FAS receptors and other proteins” (Yeda Research and Development Co. Ltd., priority 1995, dated 2010)

Legend:
[1] = target: T1, FAS-IC (Homo sapiens, UniProt P25445); experiment: Two-hybrid test (FIG. 1), binding of MORT-1 fragments to FAS-IC
T1 construct: the FAS-IC extends-from amino acid residues 175-319 of the intact FAS-R; expressed in transfected cells; host or cells: SFY526 yeast
T1 sequence (P25445 191-335): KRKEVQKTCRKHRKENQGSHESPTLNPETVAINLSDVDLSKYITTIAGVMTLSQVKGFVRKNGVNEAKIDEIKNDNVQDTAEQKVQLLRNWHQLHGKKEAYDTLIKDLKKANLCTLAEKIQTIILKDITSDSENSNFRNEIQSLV
Excerpt: (§1) To isolate proteins interacting with the intracellular domain of the FAS-R, the yeast two-hybrid system was used (Fields and Song, 1989). […] In this system, the genes for the candidate interacting proteins are cloned into separate expression vectors. In one expression vector, the sequence of the one candidate protein is cloned in phase with the sequence of the GAL4 DNA-binding domain to generate a hybrid protein with the GAL4 DNA-binding-domain, and in the other vector, the sequence of the second candidate protein is cloned in phase with the sequence of the GAL4 activation domain to generate a hybrid protein with the GAL4-activation domain. The two hybrid vectors are then co-transformed into a yeast host strain having a lacZ or HIS3 reporter gene under the control of upstream GAL4 binding sites. Only those transformed host cells (cotransformants) in which the two hybrid proteins are expressed and are capable of interacting with each other, will be capable of expressing the reporter gene. In the case of the lacZ reporter gene, host cells expressing this gene will become blue in color when X-gal is added to the cultures. […]
(§2) In FIG. 1, there is depicted the interaction of the proteins encoded by the Gal4 DNA binding domain and activation-domain constructs (pGBT9 and pGAD-GH) within transfected SFY526 yeasts as assessed by β-galactosidase expression filter assay. […]

[2] = test system: FAS-R mediated cell death in HeLa cells; experiment: Anti-FAS-R antibody (CH-11) induced death of HeLa cells co-expressing FAS-R, neutral-red uptake; assay type: cell-based; details: co-expression with human FAS-R in HeLa HtTA-1; CH-11 antibody plus 10 μg/ml cycloheximide
Excerpt: In another set of experiments to analyze the region of the MORT-1 protein involved in the binding to the FAS-IC, the following proteins were expressed transiently in HeLa cells that contain a tetracycline-controlled transactivator (HtTA-1), using a tetracycline-controlled expression vector (pUHD10-3): Human FAS-R alone; Human FAS-R as well as the N-terminal part of MORT-1 (amino acids 1-117, the “MORT-1 head”); Human FAS-R as well as the C-terminal part of MORT-1, which contains its ‘death domain’ homology region (amino acids 130-245, the “MORT-1 DD”); FLAG-55.11 (amino acids 309-900 of protein 55.11 fused at the N-terminus to the FLAG octapeptide, the protein 55.11 being a p55-IC-specific binding protein. Twelve hours after transfection, the cells were trypsinized and re-seeded at a concentration of 30,000 cells/well. After 24 hrs further incubation, the cells were treated for 6 hrs with a monoclonal antibody against the extracellular domain of FAS-R (monoclonal antibody CH-11, Oncor, Gaithersburg, Md., USA) at various concentrations (0.001-10 μg/ml monoclonal antibody), in the presence of 10 μg/ml cycloheximide. Cell viability was then determined by the neutral-red uptake assay and the results were presented in terms of % viable cells as compared to cells that had been incubated with cycloheximide alone (in the absence of anti-FAS-R monoclonal antibody CH-11). […]

[3] = test system: fragment of MORT-1 corresponding to residues 1-117; experiment: Two-hybrid test (FIG. 1), binding to MORT-1 residues 1-117
Excerpt: as §1, §2

[4] = target: T2, MORT-1 (Homo sapiens, UniProt Q13158, G32V); experiment: Two-hybrid test (FIG. 1), binding to full-length MORT-1; set-up: expressed in transfected cells; host or cells: SFY526 yeast
T2 sequence (Q13158 with tags, fused parts or gaps G32V): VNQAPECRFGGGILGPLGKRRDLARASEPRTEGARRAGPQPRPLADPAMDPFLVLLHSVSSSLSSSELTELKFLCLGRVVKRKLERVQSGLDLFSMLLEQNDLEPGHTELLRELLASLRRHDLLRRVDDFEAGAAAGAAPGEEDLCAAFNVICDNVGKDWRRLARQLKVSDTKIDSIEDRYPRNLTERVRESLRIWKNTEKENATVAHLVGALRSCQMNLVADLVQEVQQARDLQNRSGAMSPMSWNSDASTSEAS
Excerpt: To isolate proteins interacting with the intracellular domain of the FAS-R, the yeast two-hybrid system was used (Fields and Song, 1989). […] In this system, the genes for the candidate interacting proteins are cloned into separate expression vectors. In one expression vector, the sequence of the one candidate protein is cloned in phase with the sequence of the GAL4 DNA-binding domain to generate a hybrid protein with the GAL4 DNA-binding-domain, and in the other vector, the sequence of the second candidate protein is cloned in phase with the sequence of the GAL4 activation domain to generate a hybrid protein with the GAL4-activation domain. The two hybrid vectors are then co-transformed into a yeast host strain having a lacZ or HIS3 reporter gene under the control of upstream GAL4 binding sites. Only those transformed host cells (cotransformants) in which the two hybrid proteins are expressed and are capable of interacting with each other, will be capable of expressing the reporter gene. In the case of the lacZ reporter gene, host cells expressing this gene will become blue in color when X-gal is added to the cultures.
(b) retransforming the plasmid DNA and original FAS-IC hybrid plasmid and control plasmids described in (a) into yeast host cells of strain SFY526 and determining the LACZ^+ activity (effectivity of β-gal formation, i.e., blue color formation).
In FIG. 1, there is depicted the interaction of the proteins encoded by the Gal4 DNA binding domain and activation-domain constructs (pGBT9 and pGAD-GH) within transfected SFY526 yeasts as assessed by β-galactosidase expression filter assay. The DNA-binding-domain constructs included four constructs of the human Fas-IC, four constructs of the mouse Fas-IC including two full-length constructs having […] or Ile to Ala replacement mutations at position 225 (I225N and I225A, respectively), and three MORT-1 constructs, all of which are shown schematically on the left hand side of FIG. 1. […]

B1: fragment of MORT-1 corresponding to residues 1-117: N-terminal part of MORT-1, amino acids 1-117 (protein)
chain: VNQAPECRFGGGILGPLGKRRDLARASEPRTEGARRAGPQPRPLADPAMDPFLVLLHSVSSSLSSSELTELKFLCLGRVVKRKLERVQSGLDLFSMLLEQNDLEPGHTELLRELLAS
[1]
  binding to FAS-IC / FAS-R in two-hybrid test: does not bind
[2]
  effect on FAS-induced (FAS-R mediated) cell death: does not interfere
[3]
  binding to MORT-1 residues 1-117 in two-hybrid test: does not bind
[4]
  binding to full-length MORT-1 in two-hybrid test: binds
